Entries after “also recorded” stand apart in the source; their conditions may differ.
Key:
SUMO hydrolase Ulp1 = molecular target: T1, SUMO hydrolase Ulp1 (Saccharomyces cerevisiae, UniProt Q02724); assay: In vitro cleavage of purified SUMO fusion proteins by SUMO hydrolase Ulp1; assay type: biochemical, yeast; details: for In vitro cleavage by Ulp1 / SUMO hydrolase: purified fusion protein from E. coli
T1 construct: C-terminal His-tagged SUMO hydrolase/protease Ulp (403–621)p (21) (27) was expressed from pET24d; His tag (C); made in house; host or cells: E. coli Rosetta (DE3) pLysS, vector pET24d
T1 sequence (Q02724 403-621): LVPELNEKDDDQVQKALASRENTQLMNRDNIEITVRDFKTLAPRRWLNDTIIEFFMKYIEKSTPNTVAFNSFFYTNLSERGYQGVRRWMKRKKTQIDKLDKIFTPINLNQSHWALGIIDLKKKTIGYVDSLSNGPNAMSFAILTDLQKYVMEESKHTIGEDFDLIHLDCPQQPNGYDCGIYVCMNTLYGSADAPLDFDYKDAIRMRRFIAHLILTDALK

E. coli [1] = assay: Soluble versus insoluble fraction of fusion proteins expressed in E. coli; assay type: cell-based
Method: E. coli were harvested by mild centrifugation and washed once with PBS buffer. Cells were resuspended in 4 ml of PBS and ruptured by several pulses of sonication. Unbroken cells were removed by mild centrifugation (5 min at 1500×g) and supernatants were sonicated again to ensure complete cell lysis. An aliquot (5 μl) was mixed with 2% SDS to ensure that no viscosity is detected owing to lysis of unbroken cells. After ensuring that no unbroken cells remained in the lysate, insoluble material consisting of cell walls, inclusion bodies and membrane fragments was sedimented by centrifugation (18,000×g for 10 min). The supernatant was considered “Soluble fraction”.
The pellets were washed from any remaining soluble proteins, lipids and peptidoglycan as follows. Pellets were resuspended in 600 μl of PBS and to the suspensions 600 μl of solution containing 3 M urea and 1% Tri ton X100 was added. The suspension was briefly vortexed and insoluble material was collected by centrifugation as above. The PBS/Urea/Triton wash was repeated two more times to ensure complete removal of soluble proteins. The washed pellets, designated as “insoluble fraction,” consisted primarily of inclusion bodies formed by over expressed proteins. Approximately 10 μg of protein from each fraction was resolved on 12% SDS-PAGE minigels and stained with Coomassie Brilliant Blue.
Human nuclear receptor proteins, such as steroid receptors, contain ligand-binding domains. These proteins have proven hard to express in soluble form in E. coli. […] The ligand-binding domain of LXR was expressed as SUMO fusion in Rosetta plysS cell at 20° C. or 37° C. and the pattern of soluble and insoluble protein was analyzed. […] Further proof that SUMO promotes solubility of previously insoluble proteins was gained by expressing MAPKAP2 kinase as a SUMO-fusion in E. coli. […] Numbers at the top of the gel, 0.1, 0.25 and 0.5 refer to the mM concentration of inducer IPTG, in the culture. The original induced culture (I), supernatant from lysed cells (S) and resuspended pellet (P) were analyzed on 12% SDS-PAGE. […] Although induction at 37° C. allows greater degree of expression, more than 50% of the kinase is still insoluble under these conditions. Cleavage of SUMO-MAPKKAP2 kinase by SUMO hydrolase is described in Example III. Also see FIG. 18.

Ulp1 Hydrolase = molecular target: T2, Ulp1 Hydrolase (Saccharomyces cerevisiae, UniProt Q02724); assay: In vitro Ulp1 cleavage of His6SUMO-GFP under various additives/conditions; assay type: biochemical, yeast; details: 4 to 37° C.
T2 construct: C-terminal His-tagged SUMO hydrolase/protease Ulp (403–621)p (21) (27) was expressed from pET24d; His tag (C); made in house; host or cells: E. coli Rosetta (DE3) pLysS, vector pET24d
T2 sequence (Q02724 403-621): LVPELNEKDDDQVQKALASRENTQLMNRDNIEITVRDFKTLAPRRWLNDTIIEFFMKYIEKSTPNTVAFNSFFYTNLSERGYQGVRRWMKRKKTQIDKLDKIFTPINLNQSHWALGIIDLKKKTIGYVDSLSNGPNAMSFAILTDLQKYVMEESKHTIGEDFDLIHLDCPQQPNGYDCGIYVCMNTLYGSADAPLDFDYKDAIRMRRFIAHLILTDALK
Method: Ni-NTA purified His6SUMO-GFP was incubated with Ulp1 under the indicated conditions for one hour at room temperature unless indicated otherwise. Low molecular weight markers (LMW) are also provided.
Ni-NTA purified His6SUMO-GFP was incubated with Ulp1 and 10 mM of various protease inhibitors for 1 hour at room temperature. Lane markers: Norm is addition of Ulp1 and N-ethymaleimide (NEM) to the substrate at the same time, Pre is the incubation of Ulp1 with NEM prior to the addition of substrate, +Ve is the absence of any inhibitor, −Ve is in the absence of Ulp1, lane 1 is with E-64, lane 2 is with EDTA, lane 3 is with leupeptin, lane 4 is with NEM, lane 5 is with pepstatin, lane 6 is with TLCK. Low molecular weight markers (LMW) are also provided.
The effects of various additives/conditions and temperature upon the in vitro cleavage reaction were determined as follows: His6smt3MeGFP was expressed from pET24d in Rosetta (DE3) pLysS (Novagen). The recombinant protein was purified as before using Ni-NTA agarose (Qiagen) and then buffer exchanged into 20 mM Tris-HCl pH 8.0, 150 mM NaCl and 5 mM β-mercaptoethanol using a PD-10 column (AP Biotech). […]

E. coli [2] = assay: GFP fluorescence in soluble fractions of E. coli; assay type: cell-based; details: 37° C., approx. 0.1 mg soluble protein, Ex 485 nm/Em 510 nm
Method: GFP fluorescence was measured in soluble fractions (approx. 0.1 mg of soluble protein in a final volume of 40 μl) using Fluoroscan Accent FL fluorometer (LabSystems) with Excitation 485 nm/Emission 510 nm filter set with the exposure set to 40 sec. The data are presented in Arbitrary Units (AU).
The design and construction of all the UBL E. coli expression vectors has been described above. The DNA sequences, accession numbers of the UBL-GFP fusion proteins, and translation frames are shown FIGS. 25–32. […] Un-fused GFP is generally poorly expressed in E. coli. […] Induced cells were broken by sonication and soluble proteins were analyzed on SDS-polyacrylamide gels. […] To determine if the fusion proteins were folded correctly, we determined the fluorescence properties of proteins in the soluble fraction.

B1: SUMO kinase: MAPKAP2 kinase expressed as a SUMO-fusion in E. coli (SEQ ID NO: 29) (protein)
chain: MGHHHHHHGSDSEVNQEAKPEVKPEVKPETHINLKVSDGSSEIFFKIKKTTPLRRLMEAFAKRQGKEMDSLRFLYDGIRIQADQTPEDLDMEDNDIIEAHREQIGGMQFHVKSGLQIKKNAIIDDYKVTSQVLGLGINGKVLQIFNKRTQEKFALKMLQDCPKARREVELHWRASQCPHIVRIVDVYENLYAGRKCLLIVMECLDGGELFSRIQDRGDQAFTEREASEIMKSIGEAIQYLHSINIAHRDVKPENLLYTSKRPNAILKLTDFGFAKETTSHNSLTTPCYTPYYVAPEVLGPEKYDKSCDMWSLGVIMYILLCGYPPFYSNHGLAISPGMKTRIRMGQYEFPNPEWSEVSEEVKMLIRNLLKTEPTQRMTITEFMNHPWIMQSTKVPQTPLHTSRVLKEDKERWEDVKEEMTSALATMRVDYEQIK
SUMO hydrolase Ulp1
  In vitro cleavage by Ulp1 / SUMO hydrolase: efficiently cleaved
E. coli [1]; as summarised in Example III for FIG. 8
  Soluble form as fusion to SUMO: 95%
E. coli [1]; induced at 20° C. with 0.25 mM IPTG
  Soluble fraction of fusion protein: 90%
E. coli [1]; induction at 37° C.
  Insoluble fraction of fusion protein: more than 50%

B2: SUMO-LXR: human liver X receptor ligand binding domain as SUMO fusion (SEQ ID NO: 25) (protein)
chain: MGHHHHHHGSDSEVNQEAKPEVKPEVKPETHINLKVSDGSSEIFFKIKKTTPLRRLMEAFAKRQGKEMDSLRFLYDGIRIQADQTPEDLDMEDNDIIEAHREQIGGMSLWLGAPVPDIPPDSAVELWKPGAQDASSQAQGGSSCILREEARMPHSAGGTAGVGLEAAEPTALLTRAEPPSEPTEIRPQKRKKGPAPKMLGNELCSVCGDKASGFHYNVLSCEGCKGFFRRSVIKGAHYICHSGGHCPMDTYMRRKCQECRLRKCRQAGMREECVLSEEQIRLKKLKRQEEEQAHATSLPPRRSSPPQILPQLSPEQLGMIEKLVAAQQQCNRRSFSDRLRVTPWPMAPDPHSREARQQRFAHFTELAIVSVQEIVDFAKQLPGFLQLSREDQIALLKTSAIEVMLLETSRRYNPGSESITFLKDFSYNREDFAKAGLQVEFINPIFEFSRAMNELQLNDAEFALLIAISIFSADRPNVQDQLQVERLQHTYVEALHAYVSIHHPHDRLMFPRMLMKLVSLRTLSSVHSEQVFALRLQDKKLPPLLSEIWDVHE
E. coli [1]; induced at 20° C.
  Fraction of protein solublized by SUMO fusion: about 40%
E. coli [1]; induced at 37° C.
  Solubility of fusion protein: hardly any SUMO-LXR was soluble

B3: Ulp1: C-terminal His-tagged yeast SUMO hydrolase/protease Ulp (403–621) expressed in E. coli (protein, UniProt Q02724 403-621, looked up, fragment)
chain: LVPELNEKDDDQVQKALASRENTQLMNRDNIEITVRDFKTLAPRRWLNDTIIEFFMKYIEKSTPNTVAFNSFFYTNLSERGYQGVRRWMKRKKTQIDKLDKIFTPINLNQSHWALGIIDLKKKTIGYVDSLSNGPNAMSFAILTDLQKYVMEESKHTIGEDFDLIHLDCPQQPNGYDCGIYVCMNTLYGSADAPLDFDYKDAIRMRRFIAHLILTDALK
modifications: C-terminal His tag
notes: C-terminal His-tagged yeast SUMO hydrolase/protease Ulp (403–621) expressed in E. coli
Ulp1 Hydrolase
  Effect of temperature on Ulp1 hydrolase activity: extremely active at 37 °C as well as at 4 °C; also recorded: Ulp1 is active over a broad range of temperatures,

B4: Hub1-GFP (protein)
chain: MGHHHHHHGSDSEVNQEAKPEVKPEVKPETHINLKVSDGSSEIFFKIKKTTPLRRLMEAFAKRQGKEMDSLRFLYDGIRIQADQAPEDLDMEDNDIIEAHREQIGG
E. coli [1]; 37° C., FIG. 4A
  Solubility of UBL-GFP fusion (soluble panel of stained gel): able to solublize the GFP
E. coli [2]
  GFP fluorescence of soluble fraction (correct folding): able to fluoresce

B5: β-GUS: SUMO fusion of 65 KDa E. coli β-glucuronidase (SEQ ID NO: 23) (protein)
chain: MGHHHHHHGSDSEVNQEAKPEVKPEVKPETHINLKVSDGSSEIFFKIKKTTPLRRLMEAFAKRQGKEMDSLRFLYDGIRIQADQTPEDLDMEDNDIIEAHREQIGGMEFMLRPVETPTREIKKLDGLWAFSLDRENCGIDQRWWESALQESRAIAVPGSFNDQFADADIRNYAGNVWYQREVFIPKGWAGQRIVLRFDAVTHYGKVWVNNQEVMEHQGGYTPFEADVTPYVIAGKSVRITVCVNNELNWQTIPPGMVITDENGKKKQSYFHDFFNYAGIHRSVMLYTTPNTWVDDITVVTHVAQDCNHASVDWQVVANGDVSVELRDADQQVVATGQGTSGTLQVVNPHLWQPGEGYLYELCVTAKSQTECDIYPLRVGIRSVAVKGQQFLINHKPFYFTGFGRHEDADLRGKGFDNVLMVHDHALMDWIGANSYRTSHYPYAEEMLDWADEHGIVVIDETAAVGFNLSLGIGFEAGNKPKELYSEEAVNGETQQAHLQAIKELIARDKNHPSVVMWSIANEPDTRPQVHGNISPLAEATRKLDPTRPITCVNVMFCDAHTDTISDLFDVLCLNRYYGWYVQSGDLETAEKVLEKELLAWQEKLHQPIIITEYGVDTLAGLHSMYTDMWSEEYQCAWLDMYHRVFDRVSAVVGEQVWNFADFATSQGILRVGGNKKGIFTRDRKPKSAAFLLQKRWTGMNFGEKPQQGGKQ
SUMO hydrolase Ulp1; 2M urea, 20 min at room temperature
  In vitro cleavage by SUMO hydrolase after addition of urea: complete cleavage
SUMO hydrolase Ulp1
  In vitro cleavage by Ulp1 / SUMO hydrolase: partially resistant to cleavage
